The values that follow come from paper PMC12848304, “Small-molecule inhibitor of C‑terminal HSP90 dimerization modulates autophagy and functions synergistically with mTOR inhibition to kill cisplatin-resistant cancer cells” (Cell Death & Disease, 2025).

The data set deals with the molecule itself. Briefly: cross-linking; HSP90α CTD (2 μM) in Na2HPO4 (25 mM; pH 7.4), incubated 1 h at room temperature with different concentrations of VWK147, then BS3 100 μM for 1 h at room temperature; 12% SDS-PAGE and Western blot with anti-HSP90 (AC88).

B1: recombinant HSP90α CTD (domain or fragment)
chain: not shown
notes: C-terminal domain (CTD) of heat shock protein 90 alpha (HSP90α; HSPC1/HSP90AA1); It says human (hHSP90) only of HSP90 in general and in the modelling; also called CTD r-HSP90α; HSP90 CTD; source: recombinant
B1: the “stoichiometry N” value was determined as 2.
